# Where two headings read alike, the source gives them in different places.
# B1: cMet Ig (anti-cMet antibody, 5D5 variable domains on human Cg1/Ck) (antibody, human IgG1, kappa)
# heavy: not shown
# light: DFMMSQSPSSLTVSVGEKVTVSCKSSQSLLYTSSQKNYLAWYQQKPGQSPKLLIYWASTRESGVPDRFTGSGSGTDFTLTITSVKADDLAVYYCQQYYAYPWTFGGGTKLELKRTVAAPSVFIFPPSDEQLKSGTASVVCLLNNFYPREAKVQWKVDNALQSGNSQESVTEQDSKDSTYSLSSTLTLSKADYEKHKVYACEVTHQGLSSPVTKSFNRGEC
# notes: VH/VL cloned from hybridoma HB-11895 (5D5.11.6) into pHybE-hCg1,z,non-a and pHybE-hCk; also called cMet mAb; parental cMet mAb
# B2: DB001 DVD-Ig (CD3 and EGFR) (bispecific antibody)
# VH: QVQLQESGPGLVKPSQTLSLTCTVSGYSISSDFAWNWIRQPPGKGLEWMGYISYSGNTRYQPSLKSRITISRDTSKNQFFLKLNSVTAADTATYYCVTAGRGFPYWGQGTLVTVSSASTKGPEVQLVESGGGLVQPGGSLRLSCAASGFTFSTYAMNWVRQAPGKGLEWVGRIRSKYNNYATYYADSVKDRFTISRDDSKNTAYLQMNSLRAEDTAVYYCTRHGNFGNSYVSWFAYWGQGTLVTVSS
# VL: DIQMTQSPSSMSVSVGDRVTITCHSSQDINSNIGWLQQKPGKSFKGLIYHGTNLDDGVPSRFSGSGSGTDYTLTISSLQPEDFATYYCVQYAQFPWTFGGGTKLEIKTVAAPSVFIFPPDAQVTQSPSSLSASVGDRVTITCRSSTGAVTTSNYANWVQEKPGKLFKGLIGGTNKRAPGVPSRFSGSGSGTDATLTISSLQPEDFATYFCALWYSNLWVFGGGTKVEIKR
# notes: also called parental DVD-Ig
# B3: Anti-CD40 Ig (21.4.1 variable domains on human Cg1/Ck) (antibody, human IgG1, kappa)
# heavy: not shown
# light: DIQMTQSPSSVSASVGDRVTITCRASQGIYSWLAWYQQKPGKAPNLLIYTASTLQSGVPSRFSGSGSGTDFTLTISSLQPEDFATYYCQQANIFPLTFGGGTKVEIKRTVAAPSVFIFPPSDEQLKSGTASVVCLLNNFYPREAKVQWKVDNALQSGNSQESVTEQDSKDSTYSLSSTLTLSKADYEKHKVYACEVTHQGLSSPVTKSFNRGEC
# Key:
# biotin-labeled cMet [1] = molecular target: T1, biotin-labeled cMet (UniProt P08581 25-932, limits assumed, biotin label (site not stated)); assay: ELISA: antibody captured on anti-IgG Fc coat, bound biotin-labeled cMet detected with streptavidin-HRP
# T1 construct: also called cMet antigen
# [2] = molecular target: T2, rhcMetECD (cMet extracellular domain) (human, UniProt P08581 25-932); assay: SPR (Biacore 3000), binding protein captured on anti-human IgG Fc, rhcMetECD injected, 1:1 Langmuir fit, 25 C
# T2 construct: extracellular domain; also called cMet antigen
# Method: The kinetics of MBody binding to rhcMetECD (extracellular domain) was determined by surface plasmon resonance-based measurements with a Biacore 3000 instrument (Biacore AB, Uppsala, Sweden) using HBS-EP (10 mM HEPES, pH 7.4, 150 mM NaCl, 3 mM EDTA, and 0.005% surfactant P20) at 25° C. […] Approximately, 5000 RU of goat anti-human IgG Fcγ fragment specific polyclonal antibody (Pierce Biotechnology Inc, Rockford, Ill.) diluted in 10 mM sodium acetate (pH 4.5) was directly immobilized across a CM5 research grade biosensor chip using a standard amine coupling kit according to manufacturer's instructions and procedures at 25 mg/ml. Unreacted moieties on the biosensor surface were blocked with ethanolamine. Modified carboxymethyl dextran surface in flowcell 2 and 4 was used as a reaction surface. Unmodified carboxymethyl dextran without goat anti-human IgG in flow cell 1 and 3 was used as the reference surface. For kinetic analysis, rate equations derived from the 1:1 Langmuir binding model were fitted simultaneously to association and dissociation phases of all ten injections (using global fit analysis) using the Bioevaluation 4.0.1 software. Purified MBody samples were diluted in HEPES-buffered saline for capture across goat anti-human IgG Fc specific reaction surfaces and injected over reaction matrices at a flow rate of 5 ml/min. […] The equilibrium dissociation constant (M) of the reaction between MBody and rhcMetECD was then calculated from the kinetic rate constants by the following formula: KD=koff/kon. Aliquots of rhcMetECD samples were also simultaneously injected over a blank reference and reaction CM surface to record and subtract any nonspecific binding background to eliminate the majority of the refractive index change and injection noise. Surfaces were regenerated with two subsequent 25 ml injections of 10 mM Glycine (pH 1.5) at a flow rate of 5 ml/min.
# biotin-labeled cMet [3] = molecular target: T1, biotin-labeled cMet; assay: ELISA: antibody captured on anti-IgG Fc coat, bound biotin-labeled cMet detected with streptavidin-HRP; remark: listed apart in the source
# Method: cMet binding ELISA was performed to characterize the antigen binding property of cMet antibodies. 96-well ELISA plates were coated with 100 μl/well 5 μg/ml anti-mouse IgG Fc in PBS at 4° C. overnight. After 3 washes with PBS/0.05% Tween®20, the plates were blocked with 5% milk in PBS for 1 hour at room temperature. After another 3 washes with PBS/0.05% Tween®20, 100 μl cMet antibody was added to each well followed by an incubation of 1 hour at room temperature. Binding biotin-labeled cMet was detected by Streptavidin-horseradish peroxidase (KPL, Gaithersburg, Md.) and tetramethylbenzidine (Thermo Scientific, Rockford, Ill.). Final absorbances were acquired at 450 nm after stopping the reactions with 2 mol/L H₂SO₄. […] The terms EC₅₀ and IC₅₀ may be used interchangeably in this Example to reflect the concentration of the antibody which induces a response halfway between the baseline and the maximum after a specified exposure time.
# [4] = molecular target: T2, rhcMetECD (cMet extracellular domain); assay: SPR (Biacore 3000), apparent stoichiometry at saturating rhcMetECD
# From the text: Unreacted moieties on the biosensor surface were blocked with ethanolamine. Modified carboxymethyl dextran surface in flowcell 2 and 4 was used as a reaction surface. Unmodified carboxymethyl dextran without goat anti-human IgG in flow cell 1 and 3 was used as the reference surface. For kinetic analysis, rate equations derived from the 1:1 Langmuir binding model were fitted simultaneously to association and dissociation phases of all ten injections (using global fit analysis) using the Bioevaluation 4.0.1 software. Purified MBody samples were diluted in HEPES-buffered saline for capture across goat anti-human IgG Fc specific reaction surfaces and injected over reaction matrices at a flow rate of 5 ml/min. […] The equilibrium dissociation constant (M) of the reaction between MBody and rhcMetECD was then calculated from the kinetic rate constants by the following formula: KD=koff/kon. Aliquots of rhcMetECD samples were also simultaneously injected over a blank reference and reaction CM surface to record and subtract any nonspecific binding background to eliminate the majority of the refractive index change and injection noise. […] The apparent stoichiometry of the captured MBody-rhcMetECD complex was calculated under saturating binding conditions (steady-state equilibrium) using the following formula:
# [5] = molecular target: c-Met on tumor cell lines (A549, IM-95, SNU-5, SNU-620) (UniProt P08581 25-1390, limits assumed); assay: cell-based or functional assay
# [6] = molecular target: T3, Neonatal Fc receptor (FcRn) on CHO-FcRnGPI cells; assay: flow cytometry on CHO-FcRnGPI cells, pH 6.4
# T3 construct: whole, on cells; nothing more is said; also called FcRn receptors
# Method: CHO-FcRnGPI cells (Stable FcRn receptor expressor) and CHO-pBudl l cells (non-FcRn expressor) were aliquotted into 96-well plates at 1×10⁵ cells/well. Cells were resuspended in 150 μl FACS buffer. […] 30 μl of diluted antibody or half-Ig binding protein was added to each well and incubated on ice for 1 hour. Following 2 washes with FACS buffer, 50 μl of secondary antibody R-phycoerythrin-conjugated AfiniPure F(ab′)2 Fragment goat anti-human IgG (Jackson ImmunoResearch, West Grove, Pa.) diluted in FACS buffer pH 6.4 or pH7.4 was added. The mixture was incubated for 30 min on ice. The cells were resuspended in 100 μl PBS with 1% FBS (Invitrogen, Carlsbad, Calif.) and 2 μg/ml propidium iodide (Invitrogen, Carlsbad, Calif.) of the corresponding pH. Final FACS data were acquired on a FACScan (Becton Dickinson, Franklin Lakes, N.J.).
# CD3 on Jurkat cells = molecular target: T4, CD3 on Jurkat cells (UniProt P07766 23-207); assay: flow cytometry on Jurkat cells, Alexa Fluor 488 anti-human IgG Fc
# T4 construct: whole, on cells; CD3 is a multi-chain complex; also called CD3 antigen
# Method: 0.5×10⁶ of Jurkat or NCI-N87 cells were washed with FACS buffer (1% BSA/PBS) and resuspended in 50 ul of FACS buffer. mAbs or Fab-bodies were prepared in 50 ul of FACS buffer and mixed with cells and incubated at 4° C. for 1 hr.
# [7] = molecular target: EGFR on EGFR-expressing target cells (UniProt P00533 25-1210, limits assumed); assay: cell-based or functional assay
# [8] = molecular target: T5, CD40 on CD40-overexpressing HEK 293 cells (UniProt P25942 21-277, limits assumed); assay: flow cytometry on CD40-overexpressing HEK 293 cells, APC anti-human Fc
# T5 construct: whole, on cells
# Method: First, the CD40-overexpressing HEK 293 cells were stained with hIgG1 or testing material at a range of 0.01 μg/ml to 10 μg/ml. Followed by 30 min incubation on ice with an APC-conjugated anti-human Fc antibody. Cells then are washed twice and resuspended in PBS/FBS. Fluorescence was measured using a Becton Dickinson FACSCalibur (Becton Dickinson, San Jose, Calif.).
# The binding of proteins were examined by FACS.
# [9] = molecular target: T5, CD40 on CD40-overexpressing HEK 293 …; assay: cell-based or functional assay
# [10] = molecular target: T5, CD40 on CD40-overexpressing HEK 293 …; assay: flow cytometry on CD40-overexpressing HEK 293 cells, APC anti-human Fc; remark: listed apart in the source
# Method: Followed by 30 min incubation on ice with an APC-conjugated anti-human Fc antibody. Cells then are washed twice and resuspended in PBS/FBS. Fluorescence was measured using a Becton Dickinson FACSCalibur (Becton Dickinson, San Jose, Calif.).
# T2 sequence (P08581 25-932): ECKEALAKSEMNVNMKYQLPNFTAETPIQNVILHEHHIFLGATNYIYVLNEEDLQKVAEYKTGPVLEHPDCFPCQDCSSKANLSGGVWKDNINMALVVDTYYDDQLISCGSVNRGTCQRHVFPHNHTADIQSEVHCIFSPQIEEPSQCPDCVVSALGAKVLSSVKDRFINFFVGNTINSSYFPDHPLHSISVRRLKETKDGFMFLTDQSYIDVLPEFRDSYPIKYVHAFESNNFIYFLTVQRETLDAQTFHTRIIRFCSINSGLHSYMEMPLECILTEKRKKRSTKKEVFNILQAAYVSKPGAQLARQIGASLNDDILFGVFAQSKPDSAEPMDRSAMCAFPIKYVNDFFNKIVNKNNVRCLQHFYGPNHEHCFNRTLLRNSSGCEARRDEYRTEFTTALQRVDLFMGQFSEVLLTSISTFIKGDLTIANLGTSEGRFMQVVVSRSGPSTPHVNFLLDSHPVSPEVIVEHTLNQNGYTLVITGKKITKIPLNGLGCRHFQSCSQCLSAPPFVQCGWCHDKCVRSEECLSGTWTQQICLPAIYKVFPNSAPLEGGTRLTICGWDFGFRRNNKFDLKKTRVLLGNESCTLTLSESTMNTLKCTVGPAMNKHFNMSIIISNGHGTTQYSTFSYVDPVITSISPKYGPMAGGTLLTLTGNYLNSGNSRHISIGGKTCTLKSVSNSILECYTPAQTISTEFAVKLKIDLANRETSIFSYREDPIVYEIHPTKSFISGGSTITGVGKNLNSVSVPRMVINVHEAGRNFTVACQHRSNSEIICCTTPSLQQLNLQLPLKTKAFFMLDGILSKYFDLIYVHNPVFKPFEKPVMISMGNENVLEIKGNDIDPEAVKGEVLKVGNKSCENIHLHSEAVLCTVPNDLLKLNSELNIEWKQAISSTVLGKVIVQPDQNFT
# T5 sequence (P25942 21-277 limits assumed): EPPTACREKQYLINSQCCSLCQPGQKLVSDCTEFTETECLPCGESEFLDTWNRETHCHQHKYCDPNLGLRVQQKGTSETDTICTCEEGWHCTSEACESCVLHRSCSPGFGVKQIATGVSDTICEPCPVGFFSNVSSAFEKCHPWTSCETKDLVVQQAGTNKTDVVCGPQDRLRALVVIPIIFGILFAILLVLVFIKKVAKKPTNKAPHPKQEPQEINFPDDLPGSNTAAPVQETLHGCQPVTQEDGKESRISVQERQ
# T1 sequence (P08581 25-932 limits assumed): as the sequence (P08581 25-932) above
# c-Met on tumor cell lines (A549, IM-95, SNU-5, SNU-620), sequence (P08581 25-1390 limits assumed): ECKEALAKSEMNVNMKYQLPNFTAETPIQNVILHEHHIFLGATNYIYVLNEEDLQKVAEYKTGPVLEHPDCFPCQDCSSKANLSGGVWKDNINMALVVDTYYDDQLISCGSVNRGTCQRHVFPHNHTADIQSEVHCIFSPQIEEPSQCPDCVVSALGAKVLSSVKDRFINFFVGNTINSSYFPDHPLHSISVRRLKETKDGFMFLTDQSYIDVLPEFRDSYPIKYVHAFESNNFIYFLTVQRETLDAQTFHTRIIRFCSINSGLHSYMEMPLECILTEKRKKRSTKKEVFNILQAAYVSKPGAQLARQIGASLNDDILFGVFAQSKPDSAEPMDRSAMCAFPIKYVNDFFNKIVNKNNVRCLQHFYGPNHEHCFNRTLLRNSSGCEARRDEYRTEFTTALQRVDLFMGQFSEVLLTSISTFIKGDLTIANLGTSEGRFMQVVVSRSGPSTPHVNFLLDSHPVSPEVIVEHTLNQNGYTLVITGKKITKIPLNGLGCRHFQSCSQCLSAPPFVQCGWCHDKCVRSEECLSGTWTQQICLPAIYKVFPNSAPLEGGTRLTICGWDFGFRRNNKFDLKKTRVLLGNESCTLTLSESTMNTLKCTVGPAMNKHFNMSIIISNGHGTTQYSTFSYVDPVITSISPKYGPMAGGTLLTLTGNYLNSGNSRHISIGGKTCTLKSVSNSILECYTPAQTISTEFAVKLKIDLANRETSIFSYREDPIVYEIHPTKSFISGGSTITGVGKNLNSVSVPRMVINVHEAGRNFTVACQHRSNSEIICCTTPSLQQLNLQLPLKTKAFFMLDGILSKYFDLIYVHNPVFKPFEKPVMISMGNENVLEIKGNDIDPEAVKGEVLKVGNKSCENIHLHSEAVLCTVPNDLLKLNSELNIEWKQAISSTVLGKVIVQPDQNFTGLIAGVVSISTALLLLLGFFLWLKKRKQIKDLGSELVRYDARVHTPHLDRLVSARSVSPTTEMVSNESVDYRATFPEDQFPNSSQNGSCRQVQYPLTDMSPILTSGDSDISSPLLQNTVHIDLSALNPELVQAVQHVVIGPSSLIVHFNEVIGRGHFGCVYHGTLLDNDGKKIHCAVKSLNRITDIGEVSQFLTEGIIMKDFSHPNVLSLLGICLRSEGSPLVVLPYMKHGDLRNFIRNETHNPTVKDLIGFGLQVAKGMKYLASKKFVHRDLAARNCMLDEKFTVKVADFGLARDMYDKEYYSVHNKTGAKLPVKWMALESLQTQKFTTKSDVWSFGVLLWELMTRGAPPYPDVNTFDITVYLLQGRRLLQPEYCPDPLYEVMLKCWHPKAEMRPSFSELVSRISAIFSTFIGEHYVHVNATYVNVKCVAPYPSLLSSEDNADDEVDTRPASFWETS
# T3 sequence (P55899 24-297, chain 1 of 2): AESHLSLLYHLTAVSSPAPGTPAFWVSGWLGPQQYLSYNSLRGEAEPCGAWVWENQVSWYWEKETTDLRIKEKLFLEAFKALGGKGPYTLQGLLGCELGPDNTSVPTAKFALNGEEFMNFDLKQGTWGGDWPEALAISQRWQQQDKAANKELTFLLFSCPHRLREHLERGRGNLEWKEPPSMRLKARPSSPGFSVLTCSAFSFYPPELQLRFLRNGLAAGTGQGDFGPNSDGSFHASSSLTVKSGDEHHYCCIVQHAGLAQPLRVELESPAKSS
# T3 sequence (P61769 21-119, chain 2 of 2, further chain): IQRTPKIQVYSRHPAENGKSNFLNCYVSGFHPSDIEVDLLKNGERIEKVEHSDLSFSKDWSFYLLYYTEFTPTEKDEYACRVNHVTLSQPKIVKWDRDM
binder,measurement,setting,value
B1,EC50,biotin-labeled cMet [1],0.35 nM
same,Kd,[2],2.67 nM
same,koff,[2],0.000214 s⁻¹
same,kon,[2],80300 M⁻¹ s⁻¹
same,EC50,biotin-labeled cMet [3],0.3 nM
same,Stoichiometry,[4],1.51
same,"Inhibition of IM95 Proliferation, EC50",[5],0.17 µg/mL
same,EC50,[6],53.3 µg/mL
B2,EC50,CD3 on Jurkat cells,74 nM
same,"Redirected Cytotoxicity (rCTL), EC50",[7],1.5 nM
B3,EC50,[8],0.084 µg/mL
same,"agonist activity, NFkB-SEAP reporter in HEK 293 cells, EC50",[9],0.12 µg/mL
same,EC50,[10],0.24 µg/mL
